Laboratory results as given in the supplement of paper PMC10126150.
± gives the standard deviation of the averaged measurements.

Each sequence was assayed on ATP (assay: switch fluorescence ratio, 500 uM ATP over buffer (Cy3 cluster intensity, sum of 5 cycles each) (fold (ratio)); higher = stronger signal-on switching upon ATP binding; sequences stand for … in TCGTCGGCAGCGTCAGATGTGTATAAGAGACAGTTTTTTTTTTTTTTTTTTTTTTTTT…TC). Details: aptamer strand: ATP DNA aptamer (quencher-CACCTGGGGGAGTATTGCGGAGGAAGG + anchor), 100 nM annealed; ATP concentration: 500 uM.
Procedure, shortened: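 Switching-strand clusters labelled with Cy3 on a modified Illumina MiSeq flow-cell were annealed to 100 nM quencher-labelled ATP aptamer, imaged in selection buffer, and re-imaged after 15 min with 500 uM ATP at 22 °C. This was done over five cycles with NaOH stripping and re-annealing in between. The fluorescence ratio is summed target-cycle over summed buffer-cycle Cy3 intensity per cluster, averaged per switch-domain sequence, excluding clusters outside 100-1000 RFU.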
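Further: ATP exposure 15 min at 22 °C before imaging.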

Row | Sequence | switch fluorescence ratio
1 | TGTTAGTTTT | 0.981 ± 0.013
2 | TGTCGGGGTA | 0.995 ± 0.016
3 | GCCGATGCGG | 0.988 ± 0.013
4 | AAAAAGCGGT | 0.984 ± 0.029
5 | AGAGGACCGA | 1.04 ± 0.05
6 | ACCAGGCAGC | 1.12 ± 0.024
7 | ACATAGCTTG | 1.03 ± 0.011
8 | GGAATAAATG | 1.021 ± 0.009
9 | TTAAATTCGA | 0.966 ± 0.036
10 | GCAGGAAGAC | 3.48 ± 0.81
11 | GATTGAATAA | 0.997 ± 0.019
12 | AGTTGGGTCG | 1.004 ± 0.0056
13 | TTCTGGATGT | 0.956 ± 0.023
14 | TCGGTCCCTT | 0.988 ± 0.035
15 | CGGGGAAGGT | 1 ± 0.031
16 | TTCGGGTAAG | 0.987 ± 0.043
17 | CAGTAGTTAT | 0.996 ± 0.011
18 | TATCTTAAAT | 0.997 ± 0.028
19 | TAAAATTGGT | 0.983 ± 0.027
20 | CATTTTCGGC | 1.01 ± 0.039
21 | GCAGGATGGG | 0.98 ± 0.019
22 | AATCATGTGC | 1 ± 0.04
23 | TATTGACATT | 1.016 ± 0.0071

Row | Sequence | switch fluorescence ratio
24 | TAGTCCATCG | 0.998 ± 0.012
25 | CTTCGTATCG | 1.04 ± 0.059
26 | CTAACTTATT | 1.01 ± 0.013
27 | AAAAAAATTT | 1 ± 0.029
28 | AAATGTTTAT | 0.9804 ± 0.0017
29 | TTATGGAGCA | 1.09 ± 0.09
30 | TAAGGGGTAA | 0.947 ± 0.019
31 | TGGGATCGCC | 1.02 ± 0.028
32 | TGGGATTATG | 0.976 ± 0.0098
33 | GGGAATTGGG | 0.997 ± 0.018
34 | TTACGACGCA | 3.67 ± 0.76
35 | GTTATCGCTA | 1.07 ± 0.04
36 | GGTGGAATCA | 0.9816 ± 0.0017
37 | ATAAGACGTT | 1.01 ± 0.041
38 | AGGTTGTTTG | 1.01 ± 0.031
39 | ACGGCCACTG | 1.07 ± 0.019
40 | TAGGTGGCTC | 1.03 ± 0.069
41 | TGAATTTAT | 0.998 ± 0.012
42 | TTATGGAAGT | 0.989 ± 0.025
43 | CTTGTGTACG | 0.965 ± 0.02
44 | AGTATGTGCT | 0.965 ± 0.024
45 | TTTCGTCGAA | 1.017 ± 0.01
46 | AAAGCTTTGG | 0.963 ± 0.021

Row | Sequence | switch fluorescence ratio
47 | GTTCTTGGG | 0.9835 ± 0.0023
48 | CGTGTCAGGG | 1 ± 0.034
49 | ACGCATTGGT | 1.188 ± 0.0086
50 | AGGGGGGACG | 0.915 ± 0.098
51 | GTGTCTGGGA | 0.985 ± 0.024
52 | CGGGGAATTG | 1 ± 0.014
53 | TGTTTTAGT | 0.992 ± 0.024
54 | TTATGAGGAC | 1.03 ± 0.056
55 | TTCTCTATGT | 1.01 ± 0.035
56 | TGACAGGGCT | 1.01 ± 0.011
57 | TTTAGCCTCG | 0.992 ± 0.046
58 | TCTCAAGTGG | 0.992 ± 0.031
59 | GGGTTAGCTG | 1.01 ± 0.081
60 | AATAGGGCG | 1.038 ± 0.0084
61 | ATTTGTCAGA | 0.98 ± 0.015
62 | TTGATGTTCG | 0.976 ± 0.015
63 | TTTGTTCATT | 0.953 ± 0.019
64 | ATAATAGATA | 1.01 ± 0.038
65 | TGGGTCTACT | 0.9761 ± 0.0084
66 | GGGGGTCCGT | 1 ± 0.025
67 | CAATCACAGG | 1.286 ± 0.0086
68 | CGTTGCTCCC | 1.3 ± 0.49
69 | TGGGGAGGCA | 0.97516 ± 0.00042

Row | Sequence | switch fluorescence ratio
70 | TGCGTGAAAT | 0.9765 ± 0.0044
71 | GTTGTAAGAT | 0.981 ± 0.028
72 | AGTTGGACAG | 1.02 ± 0.012
73 | TCAGGGGGAC | 1.78 ± 1.3
74 | TTGCGTATGA | 1.04 ± 0.063
75 | TAGAGTTAAG | 0.9747 ± 0.0046
76 | GAGATATGAG | 1.02 ± 0.024
77 | TTTTGATCCG | 1.09 ± 0.082
78 | TAGAAGAAGG | 0.9842 ± 0.0031
79 | TTTGTGTTGT | 1.015 ± 0.0099
80 | TGGGGAGGGG | 0.991 ± 0.047
81 | TGTTTCTGGT | 0.969 ± 0.038
82 | GGGCGTATGT | 0.981 ± 0.023
83 | AATTATTGGC | 1.02 ± 0.061
84 | TTGTGCGCAG | 1 ± 0.029
85 | CGACATGGTG | 1.07 ± 0.027
86 | AGGGGGTGTA | 1.02 ± 0.014
87 | GAATAAAAGC | 0.9901 ± 0.0063
88 | GGGAGAGGCT | 0.9764 ± 0.0016
89 | CCGGGGAGGT | 1.06 ± 0.1
90 | GCGTTCCGTA | 1.02 ± 0.039
91 | TAAGAGGCGC | 0.958 ± 0.077
92 | TTTTTCAAGT | 1.1 ± 0.29

Row | Sequence | switch fluorescence ratio
93 | AGGGACAGAC | 1.17 ± 0.054
94 | GACGGACAGT | 1.13 ± 0.076
95 | GTTTTTTTAT | 0.987 ± 0.02
96 | GGGGACCGGC | 0.954 ± 0.041
97 | CTAACGTATA | 1.18 ± 0.036
98 | AGATGGAATT | 0.994 ± 0.048
99 | TGAACGACGG | 1.02 ± 0.073
100 | AGGTCTTATT | 1.08 ± 0.094
101 | GAGAAAGGGT | 0.988 ± 0.019
102 | ATGCTGGGAC | 1.01 ± 0.024
103 | ATATTGGGGG | 0.998 ± 0.025
104 | TTCAGGGGTT | 1.04 ± 0.068
105 | AGGGAAAAAC | 2.45 ± 2
106 | AATTAGTGCT | 0.9938 ± 0.0069
107 | TAGGGTAGGT | 0.974 ± 0.0049
108 | TTCAAATCCC | 1.005 ± 0.0094
109 | TGGTAGTTTT | 0.9899 ± 0.0078
110 | TTTTCGGCTC | 1.04 ± 0.048
111 | TTAAATGGCA | 0.993 ± 0.033
112 | GCTTCTTGGC | 0.967 ± 0.034
113 | ATGGGGTTCG | 0.993 ± 0.035
114 | TTGCGTTTTT | 1 ± 0.024
115 | CGAGCGTGTG | 0.9998 ± 0.0047

Row | Sequence | switch fluorescence ratio
116 | ATTTTTGGGA | 0.981 ± 0.028
117 | TATTTTAGGT | 1.01 ± 0.048
118 | TTTTTTACGG | 1.02 ± 0.019
119 | AGGGTCCCGC | 0.9929 ± 0.0024
120 | CCCAGGTAGC | 4.65 ± 0.43
121 | CAATAAAATC | 0.9924 ± 0.0019
122 | GGGGGTTTAC | 1.01 ± 0.013
123 | CGGTATAGTT | 0.988 ± 0.022
124 | TTGAGAAAGG | 1.02 ± 0.025
125 | GTTGTGGTAT | 0.9785 ± 0.0027
126 | GATTTCTCGT | 0.9551 ± 0.0021
127 | GCTTCCGGCC | 1.15 ± 0.054
128 | TAAACGCTGG | 0.999 ± 0.014
129 | GTCTAATAGT | 1.03 ± 0.015
130 | AAGTGGGACC | 1.02 ± 0.025
131 | GTGACTTCAA | 1.027 ± 0.0059
132 | CGATATGGTT | 1 ± 0.025
133 | TTATTGTAAT | 1.029 ± 0.0099
134 | CTCATAACAG | 0.996 ± 0.015
135 | TGAGGGAGGG | 1.01 ± 0.017
136 | GATGTGCCAG | 0.969 ± 0.017
137 | ATAGGCGTGC | 1 ± 0.011
138 | AGCTGTAGTT | 1 ± 0.034

Row | Sequence | switch fluorescence ratio
139 | CAAAACCTGA | 1.2 ± 0.15
140 | CTTTAAGGGA | 0.9875 ± 0.0035
141 | CCTTGTATAT | 1.077 ± 0.0083
142 | CCATTCTTGG | 0.977 ± 0.018
143 | GGGTCGGGTT | 0.972 ± 0.037
144 | CATTGGAAGA | 1.02 ± 0.015
145 | CAGGGATAGT | 1.26 ± 0.32
146 | CGGTCAGGGC | 1.02 ± 0.014
147 | GTAGTTTTGC | 1.0341 ± 0.00013
148 | ATAGTTTG | 0.97739 ± 0.00022
149 | AGGCAGAATC | 1.01 ± 0.037
150 | TTCCATTGTA | 1.02 ± 0.031
151 | TTTATATTGG | 1.034 ± 0.00088
152 | TAAATTGATA | 0.9924 ± 0.0055
153 | GGCAATATTT | 1.2 ± 0.061
154 | TGGCCGATGG | 0.986 ± 0.052
155 | AGCTTCGGAC | 1.35 ± 0.12
156 | GGGTGTAACT | 0.9812 ± 0.0074
157 | ACCGGCCTGG | 1 ± 0.025
